Where “and” joins values, the source holds several entries; their conditions need not be identical. Identical values can stand only once.
Assays:
Type in all cases: physicochemical, human
[1] = Thermal denaturation monitored by far-UV CD
Protocol: Protein structural stability was analyzed by monitoring the CD signal at 222 nm upon thermal denaturation. Thermal runs were performed from 5 to 90 °C at a rate of 1 °C. min^-1. Data points were acquired every 0.1 °C with a response time of 2 s and a bandwidth of […]. After thermal denaturation, each protein sample was cooled to the starting temperature, and a second denaturation curve recorded in order to analyse the degree of reversibility of the denaturation process. Analysis of the thermal unfolding curves was performed assuming a three-state unfolding model.

[2] = Secondary structure content from far-UV CD; details: K2D software; 20 µM protein, 7 mM Tris pH 7.4, 170 mM KCl, 5 mM MgCl2; 25 °C
Protocol: Far-UV CD spectra for all protein variants were recorded using a Jasco J-810 spectropolarimeter equipped with a Peltier holder, using a 0.1 cm path length cuvette. Typically, samples contained 20 µM protein in 7 mM Tris buffer at pH 7.4, containing 170 mM KCl and 5 mM MgCl2. The far-UV CD spectra of all the variants in their native, thermally denatured and refolded states were recorded from 198 to 250 nm, and the spectrum of the buffer was systematically subtracted from the spectra of all protein samples. The secondary structure content was estimated from the far-UV CD spectrum for each protein variant using K2D software.

[3] = Tryptophan (W580) fluorescence emission; details: W580, excitation 295 nm
Protocol: Steady-state tryptophan fluorescence emission spectra of native, thermally denatured and refolded proteins were recorded from 300 to 400 nm, selectively exciting the only tryptophan residue in the SBD (W580) at 295 nm, using a Cary Eclipse spectrofluorimeter (Varian, Palo Alto, CA, USA). Excitation and emission band-passes were set to 5 nm each.

SBD641: truncated human Hsp70 (384-641), full-length SBD with interdomain linker
∆Hm, 1st transition ([1]; CD 222 nm, 20 µM protein, 7 mM Tris pH 7.4, 170 mM KCl, 5 mM MgCl2, three-state fit (C-term two-state), SE of fit): 49.4 ± 3.3 kcal/mol | ∆Hm, 2nd transition ([1]; CD 222 nm, 20 µM protein, 7 mM Tris pH 7.4, 170 mM KCl, 5 mM MgCl2, three-state fit, SE of fit): 53.3 ± 1.2 kcal/mol | Tm, 1st transition ([1]; CD 222 nm, 5 to 90 °C at 1 °C/min, 20 µM protein, 7 mM Tris pH 7.4, 170 mM KCl, 5 mM MgCl2, three-state fit (C-term two-state), SE of fit): 45.6 ± 0.4 °C | Tm, 2nd transition ([1]; CD 222 nm, 5 to 90 °C at 1 °C/min, 20 µM protein, 7 mM Tris pH 7.4, 170 mM KCl, 5 mM MgCl2, three-state fit, SE of fit): 73.1 ± 0.1 °C and 73.1 ± 0.2 °C | Degree of irreversibility of overall protein thermal denaturation ([1]; far-UV CD): ca. 20% | Reversibility of thermal unfolding ([1]; far-UV CD, second denaturation curve after cooling): is not | Random-coil content estimated from far-UV CD [2]: 49% | α-helix content estimated from far-UV CD [2]: 33% | β-sheet content estimated from far-UV CD [2]: 18% | Wavelength of fluorescence emission maximum, native [3]: 340 nm | Wavelength of fluorescence emission maximum, refolded [3]: 345 nm | Wavelength of fluorescence emission maximum, thermally denatured [3]: 350 nm

Reference: PMC3696110, “Hsp70 Oligomerization Is Mediated by an Interaction between the Interdomain Linker and the Substrate-Binding Domain” (PLoS ONE, 2013)
